In patent US20220026429A1, “COMPOSITIONS AND METHODS OF ALTERING A NUCLEIC ACID WITH RIBONUCLEASE” (The Research Foundation for the State University of New York, priority 2020, published 2022):

B1: RNase A: endonucleases from Enzyme Class EC 3.1.27.5 (protein, UniProt P61823 27-150, looked up)
Ribonuclease pancreatic: KETAAAKFERQHMDSSTSAASSSNYCNQMMKSRNLTKDRCKPVNTFVHESLADVQAVCSQKNVACKNGQTNCYQSYSTMSITDCRETGSSKYPNCAYKTTQANKHIIVACEGNPYVPVHFDASV
B2: RNase T: ribonuclease enzyme purchased from New England Biolabs (protein, UniProt P30014 1-215, looked up)
Ribonuclease T: MSDNAQLTGLCDRFRGFYPVVIDVETAGFNAKTDALLEIAAITLKMDEQGWLMPDTTLHFHVEPFVGANLQPEALAFNGIDPNDPDRGAVSEYEALHEIFKVVRKGIKASGCNRAIMVAHNANFDHSFMMAAAERASLKRNPFHPFATFDTAALAGLALGQTVLSKACQTAGMDFDSTQAHSALYDTERTAVLFCEIVNRWKRLGGWPLSAAEEV

What was measured:
RNase H = molecular target: T1, RNase H (Escherichia coli, UniProt P0A7Y4); assay: DNA nanoswitch RNase H inhibition assay (gel readout); format: biochemical; conditions: nanoswitch incubated with different concentrations of kanamycin, then RNase H (0.5 U) added; FIG. 4F; read-out: IC50 value, inhibition of the RNA cleavage activity of RNase H
T1 construct: purchased New England Biolabs (NEB)
Method: (§1) Locked nanoswitches, such as DNA-nanoswitch-nucleic acid constructs were first mixed with RNase H buffer (1× final) and placed at 37° C. 1 μl of RNase H (different units/μl) was added to 10 μl of locked nanoswitches such as DNA-nanoswitch-nucleic acid constructs and incubated at 37° C. For sensitivity experiments, samples were incubated for 1 hour at 37° C. For time series experiments, RNase H enzyme was added at different time points (from 16 mins to 0 min). After incubation, samples were mixed with 1 μl GelRed (1×final) and 2 μl loading dye (15% Ficoll, 0.1% bromophenol blue), and run on 0.8% agarose gels. A similar protocol was used for the other enzymes.
(§2) Nanoswitches were run in 0.8% agarose gels, cast from molecular biology grade agarose (Fisher BioReagents) dissolved in 0.5×Tris-borate EDTA (TBE). Gels were typically run at 75 V (constant voltage) at room temperature. Samples were pre-stained by mixing 1× GelRed stain with the samples before loading. Gels were imaged with a Bio-Rad Gel Doc XR+gel imager and analyzed using ImageJ.
Next, the potential of assays of the present disclosure was tested for screening RNase H inhibitors. […] To further make a rapid readout, a start-to-finish assay was performed within 15 mins, by incubating the nanoswitches with RNase H for 5 mins followed by agarose gel electrophoresis for 10 mins (FIG. 4G). […]

[1] = tested on: locked nanoswitches (RNA lock strand); assay: DNA nanoswitch RNase activity assay, panel of RNases; format: biochemical; conditions: agarose gel readout, FIG. 4E
Method: as §1, §2
As a step toward testing ribonuclease presence in biological samples, a known concentration of RNase H was spiked into fetal bovine serum (FBS) and cell lysates extracted from human (HeLa) and murine (C2C12) cell lines. RNase detection was preserved in 10% FBS and cell lysates with the unlocking of the DNA nanoswitch in both biofluids (FIGS. 4B-4C).

T1 sequence (P0A7Y4 whole entry): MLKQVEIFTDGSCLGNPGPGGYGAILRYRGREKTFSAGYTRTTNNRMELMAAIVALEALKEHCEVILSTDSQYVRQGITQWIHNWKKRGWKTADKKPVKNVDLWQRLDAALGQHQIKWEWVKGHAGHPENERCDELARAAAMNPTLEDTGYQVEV

| Molecule | IC50 (RNase H) | response of the locked nanoswitches (unlooping) to RNases [1] |
| --- | --- | --- |
| NC[C@H]1O[C@H](O[C@H]2[C@H](O)[C@@H](O[C@H]3O[C@H](CO)[C@@H](O)[C@H](N)[C@H]3O)[C@H](N)C[C@@H]2N)[C@H](O)[C@@H](O)[C@@H]1O [kanamycin] | 30.6 mM | – |
| B1 | – | high levels of unlooping |
| B2 | – | no activity |
